Test results reported in the supplement of paper PMC7877785.
± gives the uncertainty stated by the source.

Experiment: self-splicing fitness, log relative to wild type (ln ratio); higher = more splicing; Tetrahymena group I intron in knt gene, E. coli kanamycin selection, DiMSum; sequences stand for … in CUCUCU…GGAGGGAAAAGUUAUCAGGCAUGCACCUGGUAGCUAGUCUUUAAACCAAUAGAUUGCAUCGGUUUAAAAGGCAAGACCGUCAAAUUGCGGGAAAGGGGUCAACAGCCGUUCAGUACCAAGUCUCAGGGGAAACUUUGAGAUGGCCUUGCAAAGGGUAUGGUAAUAAGCUGACGGACAUGGUCCUAACCACGCAGCCAAGUCCUAAGUCAACAGAUCUUCUGUUGAUAUGGAUGCAGUUCACAGACUAAAUGUCGGUCGGGGAAGAUGUAUUCUUCUCAUAAGAUAUAGUCGGACCUCUCCUUAAUGGGAGCUAGCGGAUGAAGUGAUGCAACACUGGAGCCGCUGGGAACUAAUUUGUAUGCGAAAGUAUAUUGAUUAGUUUUGGAGUACUCGUGGUCG
Procedure, shortened: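 Fitness was computed with DiMSum as the error-weighted combination of replicate fold changes, kanamycin versus none, each normalised to wild type. The library randomised all eight intron nucleotides of the P1ex region, with the intron placed in the knt kanamycin-resistance gene on pET-22b(+) in E. coli BL21(DE3). Six replicate transformations were grown overnight at 37°C or 30°C on LB agar with or without 25 μg/mL kanamycin, plus 100 μg/mL carbenicillin, 50 μM IPTG and 0.2% rhamnose. Pooled colonies were amplicon-sequenced on an Illumina HiSeq 2500.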

Sequence	self-splicing fitness (ln) (30 °C)	self-splicing fitness (ln) (37 °C)
AUUUAGCAAUAUUACGGACA	-1.34 ± 0.27	-0.739 ± 0.27
AGAUAGCAAUAUUACGAGGU	-2.94 ± 0.24	-2.17 ± 0.24
GUUAAGCAAUAUUACGAGCA	-1.9 ± 0.12	-0.552 ± 0.11
AGCCAGCAAUAUUACGUCGG	-3.89 ± 0.3	-2.97 ± 0.32
CACCAGCAAUAUUACGGGAA	-1.05 ± 0.059	-1.07 ± 0.075
CGCCAGCAAUAUUACGCUUG	-2.95 ± 0.13	-1.88 ± 0.15
UGCUAGCAAUAUUACGCGAA	-2.97 ± 0.32	-1.88 ± 0.21
CCACAGCAAUAUUACGCCGG	-3.23 ± 0.18	-2.2 ± 0.19
CGUGAGCAAUAUUACGUGAU	-3.8 ± 0.24	-3.21 ± 0.23
AAUGAGCAAUAUUACGAGUG	-3.11 ± 0.27	-2.23 ± 0.23
UUUCAGCAAUAUUACGGCAU	-1.87 ± 0.16	-1.08 ± 0.19
ACCGAGCAAUAUUACGUUCC	-2.7 ± 0.26	-1.66 ± 0.23
GAUUAGCAAUAUUACGUUCG	-1.94 ± 0.16	-1.44 ± 0.13
GCUAAGCAAUAUUACGUAGC	-4.22 ± 0.26	-2.16 ± 0.18
GCGUAGCAAUAUUACGACAA	-0.888 ± 0.12	-0.789 ± 0.13
GACGAGCAAUAUUACGAUUA	-2.73 ± 0.23	-1.55 ± 0.22
UGCAAGCAAUAUUACGUGCA	-3.02 ± 0.21	-3.18 ± 0.35
AAAUAGCAAUAUUACGAGGC	-3.64 ± 0.47	
AGGAAGCAAUAUUACGGGUA	-2 ± 0.24	-1.6 ± 0.21

Sequence	self-splicing fitness (ln) (30 °C)	self-splicing fitness (ln) (37 °C)
CAAUAGCAAUAUUACGAAAU	-3.12 ± 0.15	-2.42 ± 0.23
UGAUAGCAAUAUUACGCUCA	0.162 ± 0.15	-0.26 ± 0.15
CUGCAGCAAUAUUACGUAAU	-4.74 ± 0.2	-2.04 ± 0.16
CUGGAGCAAUAUUACGGAUU	-3.29 ± 0.43	-2.83 ± 0.34
UCGCAGCAAUAUUACGGUUA	-0.15 ± 0.086	-0.398 ± 0.087
CAUCAGCAAUAUUACGCAGC	-3.35 ± 0.14	-1.29 ± 0.12
CCAGAGCAAUAUUACGUGUA	-3.22 ± 0.21	-2.08 ± 0.23
UGACAGCAAUAUUACGUAAA	-1.01 ± 0.08	-1.26 ± 0.11
UAAGAGCAAUAUUACGCGCA	-1.81 ± 0.2	-1.16 ± 0.3
UGUGAGCAAUAUUACGGUGA	-2.19 ± 0.31	-1.67 ± 0.2
AAGAAGCAAUAUUACGCCGG	-2.02 ± 0.24	-1.81 ± 0.18
CAUUAGCAAUAUUACGAGAC	-3.15 ± 0.46	-1.57 ± 0.42
UCUCAGCAAUAUUACGAUAG	-2.43 ± 0.15	-0.737 ± 0.15
CGAAAGCAAUAUUACGGCAG	-0.162 ± 0.081	0.194 ± 0.1
GCUGAGCAAUAUUACGUUGG	-2.52 ± 0.26	-1.9 ± 0.28
AGUAAGCAAUAUUACGGCGC	-1.02 ± 0.11	-0.433 ± 0.13
GUAUAGCAAUAUUACGCAAU	-1.98 ± 0.22	-2.85 ± 0.4
ACCGAGCAAUAUUACGGGGU	-3.7 ± 0.17	-2.46 ± 0.17
